From article PMC3871807, “Analysis of rice ER-resident J-proteins reveals diversity and functional differentiation of the ER-resident Hsp70 system in plants” (Journal of Experimental Botany, 2013)

B1: OsBiP1-HA (natural protein)
chain: not shown
notes: full-length cDNA; The coding region was inserted into the Pro35S-ShΔ:2HA-6His vector; source: protoplasts from rice Oc cells, transfected by electroporation, in extract; not shown: 2x HA, C-terminal, kept; His6, C-terminal, kept
B2: OsBiP5-HA (natural protein)
chain: not shown
notes: as for B1

How the values were obtained:
Assay in all cases: co-IP; J-protein-3xFLAG and OsBiP-2HA-6His co-transfected into rice Oc cell protoplasts, overnight at 28 °C; extract in 50 mM TRIS-HCl pH 7.5, 150 mM NaCl, 0.5% Triton X-100; anti-FLAG M2 magnetic beads 2 h at 4 °C; washed with NET buffer (0.1% NP-40); blots with anti-FLAG-HRP and anti-HA-HRP; recovery of BiP-HA over input, relative to BiP1-HA
Details in all cases: partners not purified
OsP58A-FLAG = biological target: T1, OsP58A-FLAG (rice (Oryza sativa), UniProt A0A0P0VG31 29-476)
T1 construct: OsP58A, rice ER-resident J-protein (P58IPK type: two TPR-like regions followed by a J-domain), encoded by Os02g0195300; full-length coding region; also called Os02g0195300; source: protoplasts from rice Oc cells, transfected by electroporation, in extract; not shown: 3x FLAG, C-terminal, kept
T1 sequence (looked up): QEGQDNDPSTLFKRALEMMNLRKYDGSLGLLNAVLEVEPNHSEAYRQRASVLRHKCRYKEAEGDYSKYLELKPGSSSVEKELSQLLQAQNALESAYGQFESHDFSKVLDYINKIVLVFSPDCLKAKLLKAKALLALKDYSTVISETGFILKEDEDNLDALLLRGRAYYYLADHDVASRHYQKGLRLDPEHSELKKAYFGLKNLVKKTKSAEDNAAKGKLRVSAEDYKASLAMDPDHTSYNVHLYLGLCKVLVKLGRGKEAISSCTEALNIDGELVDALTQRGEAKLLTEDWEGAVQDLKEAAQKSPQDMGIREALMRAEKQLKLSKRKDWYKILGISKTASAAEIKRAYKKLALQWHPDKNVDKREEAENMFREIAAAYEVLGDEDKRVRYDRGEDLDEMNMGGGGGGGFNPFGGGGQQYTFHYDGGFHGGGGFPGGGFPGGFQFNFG

OsERdj3B-FLAG = biological target: T2, OsERdj3B-FLAG (rice (Oryza sativa), UniProt B9FHF3 24-347)
T2 construct: OsERdj3B, rice ER-resident J-protein of 347 amino acid residues (N-terminal J-domain, zinc finger motif, DnaJ C-terminal domain), encoded by Os05g0156500; full-length coding region; also called Os05g0156500; source: protoplasts from rice Oc cells, transfected by electroporation, in extract; not shown: 3x FLAG, C-terminal, kept
T2 sequence (looked up): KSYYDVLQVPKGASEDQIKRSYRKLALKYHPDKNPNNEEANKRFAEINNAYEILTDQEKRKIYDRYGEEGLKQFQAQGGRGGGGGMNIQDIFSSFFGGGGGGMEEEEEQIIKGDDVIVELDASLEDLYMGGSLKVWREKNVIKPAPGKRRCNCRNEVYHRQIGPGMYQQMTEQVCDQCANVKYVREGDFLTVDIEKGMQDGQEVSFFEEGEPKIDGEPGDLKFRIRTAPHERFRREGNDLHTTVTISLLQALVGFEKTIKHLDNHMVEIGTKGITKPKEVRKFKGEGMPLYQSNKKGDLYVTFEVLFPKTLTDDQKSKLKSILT

OsERdj3A-FLAG = biological target: T3, OsERdj3A-FLAG (rice (Oryza sativa), UniProt Q10MW6 26-582)
T3 construct: OsERdj3A, rice ER-resident J-protein (N-terminal J-domain followed by a thioredoxin-like region), encoded by Os03g0293000; also called Os03g0293000; source: protoplasts from rice Oc cells, transfected by electroporation, in extract; not shown: 3x FLAG, C-terminal, kept
T3 sequence (Q10MW6 26-582): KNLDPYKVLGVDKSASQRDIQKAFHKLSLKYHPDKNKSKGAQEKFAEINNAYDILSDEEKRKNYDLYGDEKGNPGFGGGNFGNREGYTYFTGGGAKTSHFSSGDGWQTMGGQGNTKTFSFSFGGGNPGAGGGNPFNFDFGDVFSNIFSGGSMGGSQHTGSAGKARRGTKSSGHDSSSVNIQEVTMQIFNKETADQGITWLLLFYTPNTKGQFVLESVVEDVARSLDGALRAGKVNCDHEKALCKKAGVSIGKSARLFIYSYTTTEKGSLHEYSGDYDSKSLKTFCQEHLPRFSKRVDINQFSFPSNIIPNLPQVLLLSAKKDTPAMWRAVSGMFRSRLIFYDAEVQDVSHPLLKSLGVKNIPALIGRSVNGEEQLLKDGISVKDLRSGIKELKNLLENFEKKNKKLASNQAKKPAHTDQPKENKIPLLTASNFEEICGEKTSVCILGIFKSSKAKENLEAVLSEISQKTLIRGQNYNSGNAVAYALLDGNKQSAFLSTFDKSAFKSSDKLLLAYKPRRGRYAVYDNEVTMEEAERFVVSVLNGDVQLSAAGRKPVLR

Binder | fold higher affinity than OsBiP3-HA (recovery in co-IP) (OsP58A-FLAG) | fold higher affinity than OsBiP3-HA (recovery in co-IP) (OsERdj3B-FLAG) | fold higher affinity than OsBiP5-HA (recovery in co-IP) (OsERdj3B-FLAG) | fold higher level than OsBiP1-HA (recovery in co-IP) (OsERdj3A-FLAG)
B1 | 4 fold | ~2 fold | ~3 fold | 
B2 |  |  |  | 4 fold
